From patent US20190048076A1

Target: CD16 on CD16-transfected BW cells (FcγRIIIA-transfected BW cell line) (UniProt P08637)
Assay: FACS on BW-CD16 cells

Sequence of UniProt P08637 (P08637 17-254 limits assumed): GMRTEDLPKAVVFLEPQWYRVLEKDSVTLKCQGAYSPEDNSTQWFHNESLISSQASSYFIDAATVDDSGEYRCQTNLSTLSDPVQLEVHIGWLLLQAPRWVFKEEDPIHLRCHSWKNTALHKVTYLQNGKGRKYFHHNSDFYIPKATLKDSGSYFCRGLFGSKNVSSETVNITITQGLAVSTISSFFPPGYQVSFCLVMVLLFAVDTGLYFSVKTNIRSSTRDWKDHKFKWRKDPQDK

binding percentage: 99.8%
Substance: rituximab (intact, undigested) (antibody)
